# Values joined by “and” are separate entries in the source; they are usually repeats but may differ in a detail not shown here. Equal values may be shown once.
# T1: N-terminal DNA-binding domain of AbrB (AbrBN), residues 1-53 (B. subtilis)
# T1 sequence (P08874 whole entry, looked up): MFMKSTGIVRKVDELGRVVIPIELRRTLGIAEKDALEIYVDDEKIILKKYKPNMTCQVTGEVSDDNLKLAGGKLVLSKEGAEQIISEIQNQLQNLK
# T2: Full-length AbrB from B. subtilis (B. subtilis, UniProt P08874 1-96)
# T2 sequence (looked up): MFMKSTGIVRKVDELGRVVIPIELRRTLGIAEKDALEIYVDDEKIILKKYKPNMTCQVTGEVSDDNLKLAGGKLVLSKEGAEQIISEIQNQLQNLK
# What was measured:
# [1] = biological target: C-terminal multimerization domain of AbrB (AbrBC), residues 54-94 (B. subtilis); test: SEC
# [2] = biological target: T1, N-terminal DNA-binding domain of AbrB (AbrBN), residues 1-53 (B. subtilis); test: SEC
# [3] = biological target: T1, N-terminal DNA-binding domain of AbrB (AbrBN), residues 1-53 (B. subtilis); test: AUC
# [4] = biological target: T2, Full-length AbrB from B. subtilis; test: ITC
# [5] = biological target: the molecule itself; test: SEC
molecule,measurement,setting,value
"C-terminal multimerization domain of AbrB (AbrBC), residues 54-94 (domain or fragment)",stoichiometry N,[1],2
"N-terminal DNA-binding domain of AbrB (AbrBN), residues 1-53 (domain or fragment)",stoichiometry N,[2],2
same,stoichiometry N,[3],2
"AbbA (anti-repressor protein AbbA from B. subtilis), histidine tag removed (natural protein, UniProt O31697 1-65, looked up) MRMSLIGERFTEEEQKLLLNILINHEYAIELLSSEINDIETGTKNVDGTTYKKLVTLYDRFRFEN",Kd,[4],16 nM and 11 to 21 nM
same,stoichiometry N,[4],0.868 to 0.969 (2×) and 0.918
same,stoichiometry N,[5],2
same,stoichiometry N (AbbA chains per AbrBN chain (2:2)),[3],1
